Consider one molecule from publication PMC9536601 (2022).

The target of the experiment is T1, Ad1 hexon, on wild-type human adenovirus type 1 virions (human adenovirus type 1).
T1 chain: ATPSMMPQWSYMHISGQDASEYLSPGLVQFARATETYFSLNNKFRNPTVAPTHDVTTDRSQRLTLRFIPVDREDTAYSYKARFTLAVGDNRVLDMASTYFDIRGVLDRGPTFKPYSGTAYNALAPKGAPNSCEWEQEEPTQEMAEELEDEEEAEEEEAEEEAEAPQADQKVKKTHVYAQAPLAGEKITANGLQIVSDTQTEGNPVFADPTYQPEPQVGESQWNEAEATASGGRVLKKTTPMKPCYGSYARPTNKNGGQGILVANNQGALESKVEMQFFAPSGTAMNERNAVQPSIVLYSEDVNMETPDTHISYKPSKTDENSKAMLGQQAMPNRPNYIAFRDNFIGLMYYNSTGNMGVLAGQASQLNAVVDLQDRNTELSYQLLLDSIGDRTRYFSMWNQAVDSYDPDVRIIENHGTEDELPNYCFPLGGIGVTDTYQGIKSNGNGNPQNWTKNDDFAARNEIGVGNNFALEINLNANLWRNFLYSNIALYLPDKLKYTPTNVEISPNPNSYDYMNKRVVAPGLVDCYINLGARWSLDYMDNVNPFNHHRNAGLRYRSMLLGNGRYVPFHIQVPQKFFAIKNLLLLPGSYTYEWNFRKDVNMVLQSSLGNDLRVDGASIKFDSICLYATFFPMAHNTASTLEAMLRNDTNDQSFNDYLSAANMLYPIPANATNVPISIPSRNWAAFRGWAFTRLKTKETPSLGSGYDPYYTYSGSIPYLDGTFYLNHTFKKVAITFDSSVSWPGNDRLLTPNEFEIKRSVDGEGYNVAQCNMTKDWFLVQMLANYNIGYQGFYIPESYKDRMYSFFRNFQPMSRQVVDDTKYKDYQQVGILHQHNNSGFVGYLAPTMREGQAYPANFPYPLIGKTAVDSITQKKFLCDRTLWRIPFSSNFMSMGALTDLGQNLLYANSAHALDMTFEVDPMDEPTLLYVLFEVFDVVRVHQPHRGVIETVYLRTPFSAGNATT
In words: SPR.

B1: mouse coagulation factor X (natural protein)
chain 1: ANSFFEEFKKGNLERECMEEICSYEEVREIFEDDEKTKEYWTKYKDGDQCESSPCQNQGACRDGIGGYTCTCSEGFEGKNCELFVRKLCRLDNGDCDQFCREEQNSVVCSCASGYFLGNDGKSCISTAPFPCGKITTGRR
chain 2: VALNTSDSELDLEDALLDEDFLSPTENPIELLNLNETQPERSSDDLVRIVGGRECKDGECPWQALLINEDNEGFCGGTILNEFYILTAAHCLHQARRFKVRVGDRNTEKEEGNEMVHEVDVVIKHNKFQRDTYDYDIAVLRLKTPITFRMNVAPACLPQKDWAESTLMTQKTGIVSGFGRTHEKGRQSNILKMLEVPYVDRNTCKLSTSFSITQNMFCAGYEAKLEDACQGDSGGPHVTRFKNTYYVTGIVSWGEGCARKGKYGIYTKVTTFLKWIDRSMKARVGPTAETPRTAGPPN
modifications: gamma-carboxylated glutamate residues in the Gla domain
On to B1, for which binding was put at a Kd of 0.31 nM.
